# B1: IMM2521 (bispecific antibody, human IgG1, kappa)
# heavy: QVQLVQSGAEVKKPGASVKVSCKASGYTFTSNWMHWVRQAPGQGLEWMGMIHPNSGSSNYNEKFKSRVTMTRDTSTSTVYMELSSLRSEDTAVYYCARSYYGSSPYYFDYWGQGTLVTVSSASTKGPSVFPLAPSSKSTSGGTAALGCLVKDYFPEPVTVSWNSGALTSGVHTFPAVLQSSGLYSLSSVVTVPSSSLGTQTYICNVNHKPSNTKVDKRVEPKSCDKTHTCPPCPAPELLGGPSVFLFPPKPKDTLMISRTPEVTCVVVDVSHEDPEVKFNWYVDGVEVHNAKTKPREEQYNATYRVVSVLTVLHQDWLNGKEYKCKVSNKALPAPIAATISKAKGQPREPQVYTLPPSREEMTKNQVSLTCLVKGFYPSDIAVEWESNGQPENNYKTTPPVLDSDGSFFLYSKLTVDKSRWQQGNVFSCSVMHEALHNHYTQKSLSLSPGK
# light: not shown
# notes: SIRPαD1 mutant linked through the linker to the N-terminus of each light chain of IMM2515; also called recombinant fusion protein IMM2521; PD-L1×CD47 bispecific
# B2: IMM2515 (antibody, human IgG1, kappa, V domains shown)
# VH: QVQLVQSGAEVKKPGASVKVSCKASGYTFTSNWMHWVRQAPGQGLEWMGMIHPNSGSSNYNEKFKSRVTMTRDTSTSTVYMELSSLRSEDTAVYYCARSYYGSSPYYFDYWGQGTLVTVSS
# VL: DIQMTQSPSSLSASVGDRVTITCRASQDIINYLNWYQQKPGKAPKLLIYYTSRLHSGVPSRFSGSGSGTDFTFTISSLQPEDIATYYCQQGDTLPWTFGQGTKVEIKR
# notes: also called monoclonal anti-PD-L1 antibody; monospecific anti-PD-L1 antibody IMM2515
# Tests used:
# [1] = molecular target: T1, CD47 on Jurkat cells (UniProt Q08722 19-323, limits assumed); assay: flow cytometry on Jurkat cells, FITC anti-human IgG-Fc
# T1 construct: whole, on cells; also called CD47-expressing Raji cells
# Experimental: (§1) Cells were washed with cold PBS twice, and then incubated with FITC-conjugated secondary antibody against human IgG-Fc (Cat #F9512, Sigma) for 45 min. Cells were washed twice and re-suspended in […] PBS. Then, the cells were subject to FACS analysis using a flow cytometer (Merck Millipore, Guava® easyCyte 5HT).
# [2] = molecular target: T2, PD-L1 on CHO cells expressing human PD-L1 (CHO-PDL1) (human, UniProt Q9NZQ7 19-290); assay: flow cytometry on CHO-PD-L1 cells, FITC anti-human IgG-Fc
# T2 construct: whole, on cells; Species is stated as human for the CHO-PDL1 cells; also called CHO-PD-L1 cells; Raji-PD-L1 cells
# Experimental: as §1
# [3] = molecular target: T1, CD47 on Jurkat cells; assay: flow cytometry competition; blocks FITC-SIRPα-Fc (80 nM) on PD-L1- CD47+ Raji cells
# Experimental: The mixtures were added to a 96-well plate containing PD-L1⁻ or PD-L1⁺ CD47-expressing Raji cells, and the plate was incubated at 4° C. for 45 minutes.
# [4] = molecular target: T2, PD-L1 on CHO cells expressing human …; assay: flow cytometry competition; blocks Biotin-hPD1-mFc (1 µg/ml) on CD47- PD-L1+ CHO cells
# Experimental: Cells were incubated at 4° C. for 45 minutes, washed with PBS, and then further incubated at 4° C. for another 45 minutes with PE-conjugated mouse Anti-human CD279 (Cat #557946, BD BioScience).
# T2 sequence (Q9NZQ7 19-290): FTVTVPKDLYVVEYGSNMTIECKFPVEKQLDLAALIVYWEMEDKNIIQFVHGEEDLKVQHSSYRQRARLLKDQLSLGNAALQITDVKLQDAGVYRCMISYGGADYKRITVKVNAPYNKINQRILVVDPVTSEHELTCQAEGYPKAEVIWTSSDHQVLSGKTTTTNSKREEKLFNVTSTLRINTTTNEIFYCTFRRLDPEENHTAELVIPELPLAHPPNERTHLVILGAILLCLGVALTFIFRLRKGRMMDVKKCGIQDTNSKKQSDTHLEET
binder,measurement,setting,value
B1,EC50,[1],0.7 nM
same,EC50,[2],0.11 nM
same,IC50,[3],140 nM
same,IC50,[4],< 1 nM
B2,IC50,[4],< 1 nM
